# B1: LINE1-full (parent)
# chain: UACGUAGGUGGUUUUCCCCUGAUAGUGCUAAGGGGGCCUGGAAGUUUGGACUGGGCAGAGCUCAACACAGCGUGGCAAAGUGGCUGUGGCUAGACUGCCUCUCUGGAUUCCUCGUCACUCAGCAGGGCAUCUCUGAGAGAAAUGCC
# Variants of: B1
# Experiment: self-cleavage, relative activity (ratio to wild type); higher = more cleavage; in vitro, sequencing; the parent is a self-cleaving ribozyme
row,Variant,self-cleavage
1,A22U C99U,0.51
2,A24U A69G,0.53
3,A24U A69U,0.09
4,U23A U108G,1.59
5,U23A U108C,1.45
6,A24C U47C,2.18
7,U23C A65U,0.09
8,U23C A65G,0.1
9,U23C A129G,0
10,A24G G27U,1.17
11,U23C G55C,0.06
12,U23C A140G,1.28
13,U23C A140U,1.29
14,U23C A140C,1.35
15,A24G U87C,0.19
16,U23C A43U,1.06
17,U23C A43G,1.11
18,A22U A121C,1.27
19,A22U A142U,1.48
20,A22U A142G,1.31
21,U23C C95U,0.22
22,A24U A78G,1.31
23,U23C C66U,0.05
24,U23C U96A,0.12

row,Variant,self-cleavage
1,U23C U96C,0.21
2,A24G C120U,1.29
3,U23C A78G,1.25
4,A24G U29A,1.3
5,A22U A59G,0.07
6,A24G U39A,0.77
7,A24G U91C,0.81
8,A24G A117G,1.78
9,A22U U132C,1.6
10,A24U G35U,0.67
11,A24U G35A,0.8
12,U23A U115C,1.18
13,A22U G93A,0.07
14,A22U G106A,1.55
15,A24U A42G,1.54
16,A24G G126A,1.09
17,A24C U73C,1.84
18,A24G U73A,1.2
19,A24G U73C,1.68
20,U23C C146A,0
21,A22U U39A,1.17
22,A22U G60U,0.05
23,A24G G97A,0.17
24,U23C A64C,0.29

row,Variant,self-cleavage
1,U23C C120U,0.55
2,U23C U47A,1.9
3,U23A A59G,0.24
4,A22U C68U,0.13
5,U23A A31U,0.37
6,U23A A31G,0.93
7,U23A A94G,0.47
8,A22U A67C,0.05
9,U23A A140G,1.41
10,A24G G122C,1.12
11,A22U A65U,0.18
12,U23A U132C,0.33
13,A24G G25U,1.14
14,A24G U104A,1.24
15,A24G U104C,2.26
16,A24G A59G,0.21
17,A24G U102C,1.73
18,A24G U102G,0.54
19,A24G U102A,1.15
20,A22U U73A,1.52
21,A24G A136G,1.15
22,U23C G127C,1.12
23,U23A G105U,1.36
24,U23A A64C,0.48

row,Variant,self-cleavage
1,A24G A141U,1.41
2,U23C A30U,1.15
3,U23C A30G,0.89
4,U23G U115C,1.29
5,A24G G93A,0.13
6,A24U U39C,1.47
7,U23C A50U,1
8,U23C A50G,1.34
9,A24U A138U,1.93
10,A24G U52A,0.79
11,A24U U96A,0.07
12,A24U U96C,0.07
13,A24G U26C,0.97
14,A22U U26C,1.18
15,A24C C99A,0.47
16,A24U U87C,0.3
17,A22U A64G,0.3
18,A24G U130C,1.47
19,A24C U91A,0.57
20,A24C A140G,1.15
21,A24U U81C,1.24
22,A22U A136G,1.13
23,A22U A136U,1.04
24,U23A A43G,1.27

row,Variant,self-cleavage
1,A22U A124G,0.47
2,A24U G49A,1.39
3,A22U U130C,1.35
4,U23A A67G,0.71
5,U23C,1.3
6,U23A,1.3
7,U23G,1.18
8,U23C G74A,0.99
9,U23A U73C,1.24
10,U23C U81A,1.85
11,U23C U81C,1.41
12,A22U C118U,1.47
13,U23A U96C,0.19
14,U23A U96A,0.08
15,A22U U115A,0.63
16,A22U U112A,1.19
17,U23C U143A,1.28
18,A24G A124U,1.54
19,A24U A30G,1.09
20,A22U G105A,1.29
21,U23A U81C,0.86
22,A24U U73C,1.79
23,U23C A31G,0.85
24,A24U U62C,0.08

row,Variant,self-cleavage
1,A24U A67U,0.1
2,A24U A124G,1.06
3,A24U A136G,1.64
4,U23C U109A,1.49
5,U23C U109C,1.84
6,U23A A107U,1.1
7,U23C U45A,1.25
8,U23C U45C,1.7
9,U23C U45G,1.02
10,A22U U62C,0.13
11,U23C U73A,1.28
12,U23C U73C,1.81
13,U23G U87A,0.11
14,U23C A92G,0.09
15,A22U A94U,0.17
16,A24G G33C,0.8
17,A22U C38A,0.64
18,A22U U29C,1.24
19,A22U G83A,0.82
20,U23C U87A,0.06
21,U23A U45C,0.71
22,A24C A65U,0
23,U23C A124U,1.22
24,U23C A124C,1.34

row,Variant,self-cleavage
1,A24G A30G,0.42
2,U23A G54A,0.96
3,U23A A24G,0.85
4,A24C A138G,0.88
5,U23C G106U,1.04
6,U23C G53A,0.87
7,A24G A31G,0.72
8,A24G G34U,0.21
9,U23A A138G,0.76
10,U23G U102C,1.02
11,A22U G49A,1.08
12,A24G G53U,1.03
13,U23A A121G,1.41
14,A24U A140G,1.75
15,A24G U112A,1.51
16,A24G U112C,1.41
17,U23A U85A,0.08
18,U23C U29C,1.06
19,A24U C123U,1.02
20,U23C C99U,0.91
21,A24U C120U,0.79
22,U23C U102A,1.28
23,U23C U102C,1.33
